B1: G(GAGVPG)70G(GVLPGVG)28G(ESIINFEKLT)2GG (protein)
chain: GGAGVPGGAGVPGGAGVPGGAGVPGGAGVPGGAGVPGGAGVPGGAGVPGGAGVPGGAGVPGGAGVPGGAGVPGGAGVPGGAGVPGGAGVPGGAGVPGGAGVPGGAGVPGGAGVPGGAGVPGGAGVPGGAGVPGGAGVPGGAGVPGGAGVPGGAGVPGGAGVPGGAGVPGGAGVPGGAGVPGGAGVPGGAGVPGGAGVPGGAGVPGGAGVPGGAGVPGGAGVPGGAGVPGGAGVPGGAGVPGGAGVPGGAGVPGGAGVPGGAGVPGGAGVPGGAGVPGGAGVPGGAGVPGGAGVPGGAGVPGGAGVPGGAGVPGGAGVPGGAGVPGGAGVPGGAGVPGGAGVPGGAGVPGGAGVPGGAGVPGGAGVPGGAGVPGGAGVPGGAGVPGGAGVPGGAGVPGGAGVPGGAGVPGGAGVPGGAGVPGGESIINFEKLTESIINFEKLTGG
B2: ST-NP: stable NP of the fusion iTEPB70-iTEPA56-pOVA (SEQ ID NO: 60) (protein)
chain: GGAGVPGGAGVPGGAGVPGGAGVPGGAGVPGGAGVPGGAGVPGGAGVPGGAGVPGGAGVPGGAGVPGGAGVPGGAGVPGGAGVPGGAGVPGGAGVPGGAGVPGGAGVPGGAGVPGGAGVPGGAGVPGGAGVPGGAGVPGGAGVPGGAGVPGGAGVPGGAGVPGGAGVPGGAGVPGGAGVPGGAGVPGGAGVPGGAGVPGGAGVPGGAGVPGGAGVPGGAGVPGGAGVPGGAGVPGGAGVPGGAGVPGGAGVPGGAGVPGGAGVPGGAGVPGGAGVPGGAGVPGGAGVPGGAGVPGGAGVPGGAGVPGGAGVPGGAGVPGGAGVPGGAGVPGGAGVPGGAGVPGGAGVPGGAGVPGGAGVPGGAGVPGGAGVPGGAGVPGGAGVPGGAGVPGGAGVPGGAGVPGGAGVPGGAGVPGGAGVPGGGVLPGVGGVLPGVGGVLPGVGGVLPGVGGVLPGVGGVLPGVGGVLPGVGGVLPGVGGVLPGVGGVLPGVGGVLPGVGGVLPGVGGVLPGVGGVLPGVGGVLPGVGGVLPGVGGVLPGVGGVLPGVGGVLPGVGGVLPGVGGVLPGVGGVLPGVGGVLPGVGGVLPGVGGVLPGVGGVLPGVGGVLPGVGGVLPGVGGGGGGGGGCGGGGGGGGCGGGGGGGGCGGGGGGGGCGESIINFEKLTESIINFEKLTGG
B3: RED-NP: reductive-environment dependable NP, disulfide stabilized fusion iTEPB70-iTEPA28-(G8C)4-pOVA (SEQ ID NO: 61) (protein)
chain: GGAGVPGGAGVPGGAGVPGGAGVPGGAGVPGGAGVPGGAGVPGGAGVPGGAGVPGGAGVPGGAGVPGGAGVPGGAGVPGGAGVPGGAGVPGGAGVPGGAGVPGGAGVPGGAGVPGGAGVPGGAGVPGGAGVPGGAGVPGGAGVPGGAGVPGGAGVPGGAGVPGGAGVPGGAGVPGGAGVPGGAGVPGGAGVPGGAGVPGGAGVPGGAGVPGGAGVPGGAGVPGGAGVPGGAGVPGGAGVPGGAGVPGGAGVPGGAGVPGGAGVPGGAGVPGGAGVPGGAGVPGGAGVPGGAGVPGGAGVPGGAGVPGGAGVPGGAGVPGGAGVPGGAGVPGGAGVPGGAGVPGGAGVPGGAGVPGGAGVPGGAGVPGGAGVPGGAGVPGGAGVPGGAGVPGGAGVPGGAGVPGGAGVPGGAGVPGGAGVPGGGVLPGVGGVLPGVGGVLPGVGGVLPGVGGVLPGVGGVLPGVGGVLPGVGGVLPGVGGVLPGVGGVLPGVGGVLPGVGGVLPGVGGVLPGVGGVLPGVGGVLPGVGGVLPGVGGVLPGVGGVLPGVGGVLPGVGGVLPGVGGVLPGVGGVLPGVGGVLPGVGGVLPGVGGVLPGVGGVLPGVGGVLPGVGGVLPGVGGCGCGCGCGESIINFEKLTESIINFEKLTGG

Legend:
DC2.4 cells [1] = assay: Presentation of the CTL epitope […] by DCs (flow cytometry); format: cell-based, murine; details: 16 h incubation with DC2.4 cells
Method: Presentation of the CTL epitope, […], by DCs. Cells of a murine DC line (DC2.4, a gift from K. Rock)^(32) were plated at 2.5×10^5/500 μL/well in 24-well plates. 500 μL of OVA, […] peptide (SEQ ID NO: 22), or iTEPB-iTEPA-pOVA NP (SEQ ID NO: 56) (iTEP-pOVA NP hereafter) were dissolved in cell culture media and added to the wells containing DCs. The cells were further cultured for 16 hrs. at 37° C. with 5% CO2 before they were collected and washed with PBS. The MHC class I complex, H-2kb/[…] presented on DC surface was stained with a PE-tagged monoclonal antibody 25-D1.16 (Biolegend, 1:100 dilution) and quantified with flow cytometry (5×10^4 events collected per sample). The data are presented as MFI normalized to the MFI of untreated DC2.4 cells.
Presentation of […] epitope vaccine by DCs. The presentation was studied as previously described (Cho et al., J Drug Target, 2015; p 1-12). The concentration of iTEP-vaccine fusions (NPs) used in this experiment was 5 μM. The results of presentation were shown as mean fluorescence intensity (MFI) of 5000 treated, live cells in a given treatment, which were normalized to the MFI value of untreated DC2.4 cells.

[2] = Critical micelle concentration by pyrene assay; format: physicochemical; details: pyrene assay in PBS
Method: Measurement of critical micelle concentrations (CMCs) of iTEP-vaccine fusions by pyrene assay. The CMCs of iTEP-vaccine fusions (NPs) were measured through fluorescence spectra by using pyrene as a hydrophobic fluorescent probe as described previously with some adjustments (Ohyanagi et al., Jpn J Clin Oncol, 2011; 41(5); 718-22; Dreher et al., J Am Chem Soc, 2008; 130(2):687-94). Briefly, the fusions were serially 2×time diluted in PBS starting from 250 μM in 96-well black clear-bottom plates. The final volume for each dilution was 150 μL. Three μL of a stock solution of 30 μM pyrene in ethanol was added to each well and mixed well. Fluorescence of these samples were scanned using an Infinite M1000 PRO plate reader (Tecan Trading AG, Switzerland) with the setting: Ex: 334 nm with a slit of 10 nm, Em: ranging 360-400 nm with a slit of 2.5 nm. Four peaks were recorded for pyrene between 360-400 nm. The ratio of emission peak number 1 (I1; 370-373 nm) and emission peak number 3 (I3; 381-384 nm) of pyrene (I1/I3) was plotted as a function of iTEP concentration. The data points were fitted to a sigmoidal-dose response curve, and the CMC was defined as the inflection point of the curve.

DC2.4 cells [3] = assay: Cellular uptake of iTEP-vaccine fusions by DCs; format: cell-based, murine
Method: Fluorescent labeling of iTEP-vaccine fusions. For the flow cytometry study, the fusions were labeled with the amine-reactive coumarin, 7-diethylaminocoumarin-3-carboxylic acid, through succinimidyl ester to form blue-fluorescent bioconjugates. For the microscopy-based cellular uptake study and the cellular degradation study, the fusions were labeled with Alexa Fluo 488 5-SDP ester (Alexa-488) to form green-fluorescent bioconjugates. The reactions were performed based on the manufacturer's instructions (Molecular Probes by Life Technologies). Briefly, 10 mg of iTEPs were reacted with 1 mg of coumarin or 0.2 mg of Alexa-488 in 0.1 M sodium bicarbonate buffer, pH 8.3 at a final volume of 1 mL. The reaction was carried out with continuous stirring in the dark and at room temperature for 1.5 h. The protein-dye conjugates were purified using Amicon Ultra1-5 (10k) centrifugal filters (Millipore). The coumarin conjugate was measured for their absorbances of at 205 nm (A205) and 433 nm (A433, λmax for coumarin); the Alexa-488 conjugate was measured at 205 nm and 495 nm (A495, λmax for Alexa-488). The iTEP-vaccine fusion concentrations and the degree of labeling (DOL) were calculated based on these equations: […]
Cellular uptake of iTEP-vaccine fusions. […] The fluorescence of the cells was measured by flow cytometry (collecting 5×10^4 events per sample). […]

[4] = Response of NPs to reductants (DLS after GSH or DTT); format: physicochemical; details: 16 hours, by number distribution
Method: The next set of experiments tested whether disulfide bonds inside the new NP were reducible and if the NP structure was dissolvable in a reductive environment like cytosol (glutathione, GSH 1-10 mM) (Smith et al., Toxicol Appl Pharmacol, 1996; 140(1):1-12; Wu et al., J Nutr, 2004; 134(3):489-92). The new NP and the ST-NP were treated using two concentrations of GSH, at 37° C. overnight and then analyzed particle structure changes of both NPs by DLS. These concentrations mimic GSH concentrations in either cytoplasm (GSH 1-10 mM) or the extracellular (GSH 1-10 μM) environment (Smith et al., Toxicol Appl Pharmacol, 1996; 140(1):1-12; Cantin et al., Appl Physiol (1985), 1987, 63(1):152-7; Jones et al., Clin Chim Acta, 1998; 275(2):175-84). Both NPs were stable at 10 μM of GSH. The new NP lost its particle structure after being treated with 1 mM of GSH (Table 4). […] In contrast, the ST-NP, as a control, maintained its particle structure regardless of its incubation with any concentration of GSH. Similar results emerged when dithiothreitol (DTT) was used as the reductant except that the new iTEP-NP was not stable in 10 μM of DTT (Table 4). […] The new NP was named the reductive-environment dependable NP or RED-NP.

Row | Molecule | presentation of SIINFEKL by DCs (DC2.4 cells [1]) | CMC (critical micelle concentration) [2] [µM] | uptake by DCs, times more than the MS-NP (DC2.4 cells [3]; 5 μM coumarin-labeled fusions, 4 h) | Hydrodynamic diameter (nm) ([4]; DTT 10 μM) | Hydrodynamic diameter (nm) ([4]; DTT 1000 μM) | Hydrodynamic diameter (nm) ([4]; GSH 10 μM) | Hydrodynamic diameter (nm) ([4]; GSH 1000 μM) | Hydrodynamic diameter (nm) ([4]; no reductant (0 μM)) | internalization to DCs (DC2.4 cells [3]; fluorescence microscopy and flow cytometry)
1 | B1 | significantly more | 120.6 |  |  |  |  |  |  | 
2 | B2 | significantly weaker presentation than the MS-NP | 23.94 | two | 52.56 ± 13.67 (NP) nm | 53.10 ± 13.56 (NP) nm | 52.23 ± 13.59 (NP) nm | 50 ± 13.62 (NP) nm | 54.82 ± 12.89 (NP) nm | 
3 | B3 | significantly better than that of the ST-NP |  |  | 8.75 ± 2.03 nm | 6.43 ± 2.01 nm | 37.98 ± 6.72 (NP) nm | 8.35 ± 1.04 nm | 47.11 ± 13.18 (NP) nm | as efficient as the ST-NP and more robust than the MS-NP

Reference: patent US11957762B2, “Immune tolerant and non-immune tolerant elastin-like recombinant peptides and methods of use” (University of Utah Research Foundation, priority 2015, dated 2024)
